Assay results taken from patent US20100210511A1, “Combination VEGFR2 Therapy with Temozolomide” (Bristol-Myers Squibb Company, priority 2009, published 2010).

Assays:
[1] = system: U87vIIILuc Glioblastoma Cells; experiment: Survival of NOD-SCID mice intracranially implanted with U87vIIILuc glioblastoma cells (Example 2); format: in vivo; conditions: intracranial U87vIIILuc; Compound 1 60 mg/kg IP three times per week; TMZ 34 mg/kg orally once daily for five days; 6 mice per group
Source text: (§1) Tumor Implantation. 9 week-old male NOD-SCID mice (Charles River Laboratories, Wilmington, Mass., USA) were anesthetized by 2% isoflurane. 5×10^4 U87vIIIluc tumor cells were implanted intracranially using the following stereotactic coordinates: 0.5 mm posterior, 2.5 mm lateral, and 3.5 mm intraparenchymal Animal care was kept in strict accordance with the institutional animal care and use committee of Massachusetts General Hospital.
(§2) Drug Administration. After randomization, 24 mice were divided into 4 groups (PBS, Compound 1 only, TMZ only, and Compound 1+TMZ) with 6 mice per group. PBS and Compound 1 (60 mg/kg) were delivered intraperitoneally in 200 ul IP volumes three times per week throughout the study until mice reached established criteria for euthanasia. Temozolomide (TMZ) was delivered orally (34 mg/kg) once daily for five days.
(§3) Results are shown in FIG. 1 (Compound 1=VEGFR2 specific inhibitor represented by SEQ ID NO: 4; Compound 2=TMZ; PBS=phosphate buffered saline (vehicle control)). The Y-axis indicates percent survival within each group over the length of the study Animals were followed for survival and sacrificed at the first sign of morbidity. Mean survival was 19, 29, 32 and 47 days for PBS, Compound 1, TMZ, and Compound 1+TMZ, respectively.

[2] = system: U87vIIILuc Glioblastoma Cells; experiment: Bioluminescent imaging (BLI) of U87vIIILuc tumor growth (Example 2); format: in vivo, NOD-SCID mice; conditions: Compound 1 60 mg/kg IP 3x/week, TMZ 34 mg/kg orally QD×5
Source text: as §1, §2
Scanning Mice were anesthetized using 1-2% isoflurane before intraperitoneal injection of D-luciferin salt (150 mg/kg in 200 ul PBS; Caliper Life Sciences, Hopkinton Mass.). Bioluminescent imaging (BLI) was performed in a high sensitivity, cooled CCD camera (IVIS®, Xenogen) at five-minute intervals until peak values were recorded for all mice. BLI imaging was performed on days 6, 13, 20 and 26.
Image Analysis. Living Image® software (Xenogen) was used for image capture and signal quantification. Imaging schedules are described in the treatment groups. […]

[3] = system: CD31 (endothelial blood vessel formation marker); experiment: Immunohistochemical staining for CD31 on brain tissue sections (microvascular density); format: in vivo, NOD-SCID mice; conditions: Day 14 IHC analysis; compared to TMZ or PBS groups
Description: IHC staining for CD31 was performed on paraffin-embedded mouse brain tissue sections using Rat on mouse HRP-Polymer® (Biocare Medical). Briefly, sections were deparaffinized, rehydrated and treated with peroxidase (PEROXIDAZED 1, Biocare Medical) for 5 min at room temperature. To expose antigens, sections were treated with trypsin (CAREZYME 1®, Biocare Medical) for 10 min at 37° C. Unspecific protein was blocked by using Rodent Block M® (Biocare Medical) for 30 min. Thereafter, sections were incubated with rat monoclonal anti-CD31 (1:50, Biocare Medical) antibody for 2 h at room temperature. Subsequently, sections were incubated with Rat Probe® (Biocare Medical) for 15 min at room temperature, followed by incubation with Rat-Polymer HRP® (Biocare Medical) for 20 min at room temperature.
To visualize antigens in the tissue, DAB chromogen substrate (Biocare Medical) were used for 5 min Finally, sections were lightly counter-stained with Mayer's hematoxylin. For a negative control, the incubation step with primary antibody was omitted.
Immunohistochemical staining against CD31 (endothelial blood vessel formation marker), Ki67 (cell proliferation marker) or cleaved-caspase 3 (cellular apoptosis marker) was performed on paraffin-embedded brain tissue sections. […]

[4] = system: U87vIIILuc Glioblastoma Cells; experiment: Survival in U87vIIILuc glioma model, triple administration with radiation therapy (Example 3); format: in vivo, NOD-SCID mice; conditions: radiation insensitive glioblastoma model; compared to RT alone or standard of care (TMZ+RT)
Description: Tumor implantation was performed as described above in Example 2.
Drug Administration. After randomization, 32 mice were divided into 4 groups (PBS, Radiation Therapy (RT) only, Compound 2 & RT, and Compound 1+Compound 2 & RT) with 8 mice per group. PBS and Compound 1 (60 mg/kg) were delivered intraperitoneally in 200 ul IP volumes three times per week throughout the study until mice reached established criteria for euthanasia. Compound 2 (TMZ) was delivered orally (34 mg/kg) once daily for five days. Compound 2 and RT treatments were initiated after the third dose of Compound 1.
Radiation Therapy. Mice were shielded in a custom-designed block with an aperture of 0.8 cm. After anesthetic induction (ketamine 118 mg/kg i.p.+xylazine 11.8 mg/kg i.p.), mice were irradiated to a total dose of 10 Gy in three daily fractions. 10 Gy were experimentally determined to be the highest tolerable dose for this model.
as §3, with “FIG. 5” for “FIG. 1”, “2=TMZ; RT=Radiation Therapy;” for “2=TMZ;”, “was 22, 23, 33” for “was 19, 29, 32”, “PBS, Radiation Therapy,” for “PBS,”, “Compound 2 & RT,” for “Compound 1, TMZ,”, “Compound 1+Compound 2 & RT,” for “Compound 1+TMZ,”

For `Cn1nnc2c(C(N)=O)ncn2c1=O` [TMZ, temozolomide], the Mean survival [1] was 32 days and the “Day 13 mean BLI values (photons/sec×10^6) increased by, fold” value [2] was 6.17×10^1 fold.

B1: Compound 1: VEGFR2 specific inhibitor represented by SEQ ID NO: 4, 10Fn3-based, modified with a single branched 40 kDa PEG at the C-terminal cysteine (protein)
chain: GEVVAATPTSLLISWRHPHFPTRYYRITYGETGGNSPVQEFTVPLQPPTATISGLKPGVDYTITVYAVTDGRNGRLLSIPISINYRTEIDKPCQ
modifications: branched 40 kDa PEG at C-terminal cysteine
In the case of B1, the Mean survival [1] is reported as 29 days, the “Day 13 mean BLI values (photons/sec×10^6) increased by, fold” value [2] is reported as 1.79×10^2 fold and the “Blood vessel formation by CD31 staining” value [3] is reported as “strongly reduced blood vessel formation”. The “Survival benefit (in words)” value [4] was “can enhance survival”.
